# Source: IntAct's records for PubMed 35512704
# B1: Speckle-type POZ protein (Homo sapiens), O43791 (parent)
# chain: MSRVPSPPPPAEMSSGPVAESWCYTQIKVVKFSYMWTINNFSFCREEMGEVIKSSTFSSGANDKLKWCLRVNPKGLDEESKDYLSLYLLLVSCPKSEVRAKFKFSILNAKGEETKAMESQRAYRFVQGKDWGFKKFIRRDFLLDEANGLLPDDKLTLFCEVSVVQDSVNISGQNTMNMVKVPECRLADELGGLWENSRFTDCCLCVAGQEFQAHKAILAARSPVFSAMFEHEMEESKKNRVEINDVEPEVFKEMMCFIYTGKAPNLDKMADDLLAAADKYALERLKVMCEDALCSNLSVENAAEILILADLHSADQLKTQAVDFINYHASDVLETSGWKSMVVSHPHLVAEAYRSLASAQCPFLGPPRKRLKQS
# Variants of: B1
# Conditions: with nox1_human NOX1, Q9Y5S8
# nox1_human NOX1, Q9Y5S8, sequence (Q9Y5S8 whole entry): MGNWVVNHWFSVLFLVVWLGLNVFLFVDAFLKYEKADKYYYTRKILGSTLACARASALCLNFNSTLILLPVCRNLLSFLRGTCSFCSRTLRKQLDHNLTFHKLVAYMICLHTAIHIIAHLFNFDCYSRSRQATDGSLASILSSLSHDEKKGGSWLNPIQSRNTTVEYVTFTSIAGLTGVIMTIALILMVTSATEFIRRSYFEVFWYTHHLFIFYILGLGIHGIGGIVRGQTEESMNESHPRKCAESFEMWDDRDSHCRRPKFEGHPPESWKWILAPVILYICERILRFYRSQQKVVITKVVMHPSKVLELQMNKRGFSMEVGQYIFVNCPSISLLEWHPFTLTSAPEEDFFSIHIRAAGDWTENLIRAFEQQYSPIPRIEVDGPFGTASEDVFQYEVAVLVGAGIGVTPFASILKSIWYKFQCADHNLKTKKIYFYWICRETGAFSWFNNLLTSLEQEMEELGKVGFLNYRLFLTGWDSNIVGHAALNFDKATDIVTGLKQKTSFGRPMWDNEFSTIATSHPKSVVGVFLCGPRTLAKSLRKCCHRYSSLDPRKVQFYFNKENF
row,Variant,effect of a mutation on the interaction
1,MSRVPSPPPPAEMSSGPVAESWCYTQIKVVKFSYMWTINNFSFCREEMGEVIKSSTFSSGANDKLKWCLRVNPKGLDEESKDYLSLCLLLVSCPKSEVRAKFKFSILNAKGEETKAMESQRAYRFVQGKDWGFKKFIRRDFLLDEANGLLPDDKLTLFCEVSVVQDSVNISGQNTMNMVKVPECRLADELGGLWENSRFTDCCLCVAGQEFQAHKAILAARSPVFSAMFEHEMEESKKNRVEINDVEPEVFKEMMCFIYTGKAPNLDKMADDLLAAADKYALERLKVMCEDALCSNLSVENAAEILILADLHSADQLKTQAVDFINYHASDVLETSGWKSMVVSHPHLVAEAYRSLASAQCPFLGPPRKRLKQS [Y87C],with no effect

# Variants of: B1
# Conditions: with ntrk2_human NTRK2, Q16620
row,Variant,effect of a mutation on the interaction
1,MSRVPSPPPPAEMSSGPVAESWCYTQIKVVKFSYMWTINNFSFCREEMGEVIKSSTFSSGANDKLKWCLRVNPKGLDEESKDYLSLCLLLVSCPKSEVRAKFKFSILNAKGEETKAMESQRAYRFVQGKDWGFKKFIRRDFLLDEANGLLPDDKLTLFCEVSVVQDSVNISGQNTMNMVKVPECRLADELGGLWENSRFTDCCLCVAGQEFQAHKAILAARSPVFSAMFEHEMEESKKNRVEINDVEPEVFKEMMCFIYTGKAPNLDKMADDLLAAADKYALERLKVMCEDALCSNLSVENAAEILILADLHSADQLKTQAVDFINYHASDVLETSGWKSMVVSHPHLVAEAYRSLASAQCPFLGPPRKRLKQS [Y87C],with no effect

# Variants of: B1
# Conditions: with ntrk3_human NTRK3, Q16288
row,Variant,effect of a mutation on the interaction
1,MSRVPSPPPPAEMSSGPVAESWCYTQIKVVKFSYMWTINNFSFCREEMGEVIKSSTFSSGANDKLKWCLRVNPKGLDEESKDYLSLCLLLVSCPKSEVRAKFKFSILNAKGEETKAMESQRAYRFVQGKDWGFKKFIRRDFLLDEANGLLPDDKLTLFCEVSVVQDSVNISGQNTMNMVKVPECRLADELGGLWENSRFTDCCLCVAGQEFQAHKAILAARSPVFSAMFEHEMEESKKNRVEINDVEPEVFKEMMCFIYTGKAPNLDKMADDLLAAADKYALERLKVMCEDALCSNLSVENAAEILILADLHSADQLKTQAVDFINYHASDVLETSGWKSMVVSHPHLVAEAYRSLASAQCPFLGPPRKRLKQS [Y87C],with no effect

# Variants of: B1
# Conditions: with pak3_human PAK3, O75914
# pak3_human PAK3, O75914, sequence (O75914 whole entry, looked up): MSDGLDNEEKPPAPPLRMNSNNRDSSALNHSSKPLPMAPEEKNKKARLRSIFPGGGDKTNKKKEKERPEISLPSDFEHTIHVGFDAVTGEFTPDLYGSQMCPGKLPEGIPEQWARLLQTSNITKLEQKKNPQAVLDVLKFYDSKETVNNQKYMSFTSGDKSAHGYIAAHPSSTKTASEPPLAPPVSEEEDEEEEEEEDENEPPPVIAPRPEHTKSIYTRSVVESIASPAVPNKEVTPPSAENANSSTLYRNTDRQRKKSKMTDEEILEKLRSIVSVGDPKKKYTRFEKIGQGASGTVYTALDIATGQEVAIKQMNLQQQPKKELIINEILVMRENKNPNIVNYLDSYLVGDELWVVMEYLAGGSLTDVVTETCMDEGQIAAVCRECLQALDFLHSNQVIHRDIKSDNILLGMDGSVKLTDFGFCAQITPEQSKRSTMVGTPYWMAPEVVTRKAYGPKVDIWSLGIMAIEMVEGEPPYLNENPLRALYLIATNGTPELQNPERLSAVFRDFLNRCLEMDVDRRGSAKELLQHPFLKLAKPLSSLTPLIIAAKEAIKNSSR
row,Variant,effect of a mutation on the interaction
1,MSRVPSPPPPAEMSSGPVAESWCYTQIKVVKFSYMWTINNFSFCREEMGEVIKSSTFSSGANDKLKWCLRVNPKGLDEESKDYLSLCLLLVSCPKSEVRAKFKFSILNAKGEETKAMESQRAYRFVQGKDWGFKKFIRRDFLLDEANGLLPDDKLTLFCEVSVVQDSVNISGQNTMNMVKVPECRLADELGGLWENSRFTDCCLCVAGQEFQAHKAILAARSPVFSAMFEHEMEESKKNRVEINDVEPEVFKEMMCFIYTGKAPNLDKMADDLLAAADKYALERLKVMCEDALCSNLSVENAAEILILADLHSADQLKTQAVDFINYHASDVLETSGWKSMVVSHPHLVAEAYRSLASAQCPFLGPPRKRLKQS [Y87C],with no effect

# Variants of: B1
# Conditions: with prkn_human PRKN
row,Variant,effect of a mutation on the interaction
1,MSRVPSPPPPAEMSSGPVAESWCYTQIKVVKFSYMWTINNFSFCREEMGEVIKSSTFSSGANDKLKWCLRVNPKGLDEESKDYLSLCLLLVSCPKSEVRAKFKFSILNAKGEETKAMESQRAYRFVQGKDWGFKKFIRRDFLLDEANGLLPDDKLTLFCEVSVVQDSVNISGQNTMNMVKVPECRLADELGGLWENSRFTDCCLCVAGQEFQAHKAILAARSPVFSAMFEHEMEESKKNRVEINDVEPEVFKEMMCFIYTGKAPNLDKMADDLLAAADKYALERLKVMCEDALCSNLSVENAAEILILADLHSADQLKTQAVDFINYHASDVLETSGWKSMVVSHPHLVAEAYRSLASAQCPFLGPPRKRLKQS [Y87C],with no effect

# Variants of: B1
# Conditions: with pb1_human PBRM1, Q86U86
# pb1_human PBRM1, Q86U86, sequence (Q86U86 whole entry): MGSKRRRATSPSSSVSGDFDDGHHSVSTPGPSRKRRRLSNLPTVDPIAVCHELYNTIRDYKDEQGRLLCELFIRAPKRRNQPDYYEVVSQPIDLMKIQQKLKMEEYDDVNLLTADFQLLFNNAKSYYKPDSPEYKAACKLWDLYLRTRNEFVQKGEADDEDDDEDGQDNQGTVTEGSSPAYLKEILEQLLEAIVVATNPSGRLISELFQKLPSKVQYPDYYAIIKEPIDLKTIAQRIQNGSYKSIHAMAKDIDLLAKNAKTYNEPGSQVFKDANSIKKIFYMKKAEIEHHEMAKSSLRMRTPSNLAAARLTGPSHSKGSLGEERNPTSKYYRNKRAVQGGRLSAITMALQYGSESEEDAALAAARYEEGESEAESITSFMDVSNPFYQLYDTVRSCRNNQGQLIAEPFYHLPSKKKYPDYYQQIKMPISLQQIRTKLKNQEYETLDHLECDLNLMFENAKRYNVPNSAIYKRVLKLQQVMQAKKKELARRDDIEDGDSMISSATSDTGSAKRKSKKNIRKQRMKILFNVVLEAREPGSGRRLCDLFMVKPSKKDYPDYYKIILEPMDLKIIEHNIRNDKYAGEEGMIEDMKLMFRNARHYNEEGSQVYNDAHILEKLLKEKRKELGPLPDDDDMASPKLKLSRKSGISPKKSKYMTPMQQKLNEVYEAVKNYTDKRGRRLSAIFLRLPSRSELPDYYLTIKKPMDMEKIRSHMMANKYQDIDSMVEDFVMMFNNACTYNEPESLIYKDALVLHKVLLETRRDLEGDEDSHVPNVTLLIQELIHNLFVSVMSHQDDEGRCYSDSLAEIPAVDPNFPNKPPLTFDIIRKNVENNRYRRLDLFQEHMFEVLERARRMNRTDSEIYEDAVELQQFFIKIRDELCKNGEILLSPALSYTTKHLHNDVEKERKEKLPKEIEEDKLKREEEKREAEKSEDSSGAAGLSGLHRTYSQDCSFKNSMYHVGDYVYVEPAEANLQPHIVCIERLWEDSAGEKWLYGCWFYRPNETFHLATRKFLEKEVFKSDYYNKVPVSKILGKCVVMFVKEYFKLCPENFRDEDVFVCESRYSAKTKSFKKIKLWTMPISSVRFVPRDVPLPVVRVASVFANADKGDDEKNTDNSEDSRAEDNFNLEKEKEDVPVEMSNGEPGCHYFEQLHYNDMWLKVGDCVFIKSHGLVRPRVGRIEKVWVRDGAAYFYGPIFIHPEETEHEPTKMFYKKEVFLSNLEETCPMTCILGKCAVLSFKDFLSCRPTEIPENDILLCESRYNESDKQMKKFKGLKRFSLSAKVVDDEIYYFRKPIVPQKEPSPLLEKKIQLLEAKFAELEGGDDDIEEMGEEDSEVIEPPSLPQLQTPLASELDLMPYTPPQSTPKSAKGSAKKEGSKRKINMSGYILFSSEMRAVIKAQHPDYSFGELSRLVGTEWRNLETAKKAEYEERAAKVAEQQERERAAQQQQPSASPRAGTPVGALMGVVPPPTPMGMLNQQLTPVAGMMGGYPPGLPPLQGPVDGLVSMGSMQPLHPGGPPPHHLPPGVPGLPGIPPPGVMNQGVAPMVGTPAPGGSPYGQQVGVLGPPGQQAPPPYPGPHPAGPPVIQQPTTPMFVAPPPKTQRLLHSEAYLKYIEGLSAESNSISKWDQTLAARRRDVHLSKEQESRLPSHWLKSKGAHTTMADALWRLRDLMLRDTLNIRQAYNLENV
row,Variant,effect of a mutation on the interaction
1,MSRVPSPPPPAEMSSGPVAESWCYTQIKVVKFSYMWTINNFSFCREEMGEVIKSSTFSSGANDKLKWCLRVNPKGLDEESKDYLSLCLLLVSCPKSEVRAKFKFSILNAKGEETKAMESQRAYRFVQGKDWGFKKFIRRDFLLDEANGLLPDDKLTLFCEVSVVQDSVNISGQNTMNMVKVPECRLADELGGLWENSRFTDCCLCVAGQEFQAHKAILAARSPVFSAMFEHEMEESKKNRVEINDVEPEVFKEMMCFIYTGKAPNLDKMADDLLAAADKYALERLKVMCEDALCSNLSVENAAEILILADLHSADQLKTQAVDFINYHASDVLETSGWKSMVVSHPHLVAEAYRSLASAQCPFLGPPRKRLKQS [Y87C],with no effect

# Variants of: B1
# Conditions: with pcbp1_human PCBP1, Q15365
# pcbp1_human PCBP1, Q15365, sequence (Q15365 whole entry): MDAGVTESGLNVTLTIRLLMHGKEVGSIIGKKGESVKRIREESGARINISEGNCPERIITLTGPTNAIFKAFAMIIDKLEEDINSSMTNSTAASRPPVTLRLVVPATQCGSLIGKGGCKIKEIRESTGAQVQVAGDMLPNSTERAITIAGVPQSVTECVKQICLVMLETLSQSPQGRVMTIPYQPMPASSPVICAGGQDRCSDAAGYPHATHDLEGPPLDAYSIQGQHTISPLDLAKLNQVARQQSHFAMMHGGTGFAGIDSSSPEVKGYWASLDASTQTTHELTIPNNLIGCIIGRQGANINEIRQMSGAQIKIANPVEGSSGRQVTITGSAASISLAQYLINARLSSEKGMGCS
row,Variant,effect of a mutation on the interaction
1,MSRVPSPPPPAEMSSGPVAESWCYTQIKVVKFSYMWTINNFSFCREEMGEVIKSSTFSSGANDKLKWCLRVNPKGLDEESKDYLSLCLLLVSCPKSEVRAKFKFSILNAKGEETKAMESQRAYRFVQGKDWGFKKFIRRDFLLDEANGLLPDDKLTLFCEVSVVQDSVNISGQNTMNMVKVPECRLADELGGLWENSRFTDCCLCVAGQEFQAHKAILAARSPVFSAMFEHEMEESKKNRVEINDVEPEVFKEMMCFIYTGKAPNLDKMADDLLAAADKYALERLKVMCEDALCSNLSVENAAEILILADLHSADQLKTQAVDFINYHASDVLETSGWKSMVVSHPHLVAEAYRSLASAQCPFLGPPRKRLKQS [Y87C],with no effect

# Variants of: B1
# Conditions: with pdcd1_human PDCD1, Q15116
# pdcd1_human PDCD1, Q15116, sequence (Q15116 whole entry): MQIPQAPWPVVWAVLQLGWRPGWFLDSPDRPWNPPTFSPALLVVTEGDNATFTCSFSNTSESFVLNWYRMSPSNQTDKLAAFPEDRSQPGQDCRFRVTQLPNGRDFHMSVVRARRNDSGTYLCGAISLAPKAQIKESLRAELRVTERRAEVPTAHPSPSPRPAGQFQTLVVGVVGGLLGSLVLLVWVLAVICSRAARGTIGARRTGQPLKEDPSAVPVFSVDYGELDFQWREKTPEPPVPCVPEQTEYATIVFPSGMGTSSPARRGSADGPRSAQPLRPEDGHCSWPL
row,Variant,effect of a mutation on the interaction
1,MSRVPSPPPPAEMSSGPVAESWCYTQIKVVKFSYMWTINNFSFCREEMGEVIKSSTFSSGANDKLKWCLRVNPKGLDEESKDYLSLCLLLVSCPKSEVRAKFKFSILNAKGEETKAMESQRAYRFVQGKDWGFKKFIRRDFLLDEANGLLPDDKLTLFCEVSVVQDSVNISGQNTMNMVKVPECRLADELGGLWENSRFTDCCLCVAGQEFQAHKAILAARSPVFSAMFEHEMEESKKNRVEINDVEPEVFKEMMCFIYTGKAPNLDKMADDLLAAADKYALERLKVMCEDALCSNLSVENAAEILILADLHSADQLKTQAVDFINYHASDVLETSGWKSMVVSHPHLVAEAYRSLASAQCPFLGPPRKRLKQS [Y87C],with no effect

# Variants of: B1
# Conditions: with pgfrb_human PDGFRB
row,Variant,effect of a mutation on the interaction
1,MSRVPSPPPPAEMSSGPVAESWCYTQIKVVKFSYMWTINNFSFCREEMGEVIKSSTFSSGANDKLKWCLRVNPKGLDEESKDYLSLCLLLVSCPKSEVRAKFKFSILNAKGEETKAMESQRAYRFVQGKDWGFKKFIRRDFLLDEANGLLPDDKLTLFCEVSVVQDSVNISGQNTMNMVKVPECRLADELGGLWENSRFTDCCLCVAGQEFQAHKAILAARSPVFSAMFEHEMEESKKNRVEINDVEPEVFKEMMCFIYTGKAPNLDKMADDLLAAADKYALERLKVMCEDALCSNLSVENAAEILILADLHSADQLKTQAVDFINYHASDVLETSGWKSMVVSHPHLVAEAYRSLASAQCPFLGPPRKRLKQS [Y87C],with no effect

# Variants of: B1
# Conditions: with pdk1_human PDK1, Q15118
# pdk1_human PDK1, Q15118, sequence (Q15118 whole entry, looked up): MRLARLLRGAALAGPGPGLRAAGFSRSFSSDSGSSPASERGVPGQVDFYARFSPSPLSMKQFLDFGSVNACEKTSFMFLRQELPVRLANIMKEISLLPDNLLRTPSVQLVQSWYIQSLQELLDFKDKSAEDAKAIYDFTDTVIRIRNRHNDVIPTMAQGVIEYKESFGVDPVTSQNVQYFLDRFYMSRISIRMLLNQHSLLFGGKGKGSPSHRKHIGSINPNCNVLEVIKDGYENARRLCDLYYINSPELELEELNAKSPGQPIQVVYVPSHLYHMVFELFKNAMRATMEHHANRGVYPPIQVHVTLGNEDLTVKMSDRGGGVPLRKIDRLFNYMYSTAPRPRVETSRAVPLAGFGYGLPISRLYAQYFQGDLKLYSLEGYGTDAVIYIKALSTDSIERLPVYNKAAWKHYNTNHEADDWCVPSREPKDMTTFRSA
row,Variant,effect of a mutation on the interaction
1,MSRVPSPPPPAEMSSGPVAESWCYTQIKVVKFSYMWTINNFSFCREEMGEVIKSSTFSSGANDKLKWCLRVNPKGLDEESKDYLSLCLLLVSCPKSEVRAKFKFSILNAKGEETKAMESQRAYRFVQGKDWGFKKFIRRDFLLDEANGLLPDDKLTLFCEVSVVQDSVNISGQNTMNMVKVPECRLADELGGLWENSRFTDCCLCVAGQEFQAHKAILAARSPVFSAMFEHEMEESKKNRVEINDVEPEVFKEMMCFIYTGKAPNLDKMADDLLAAADKYALERLKVMCEDALCSNLSVENAAEILILADLHSADQLKTQAVDFINYHASDVLETSGWKSMVVSHPHLVAEAYRSLASAQCPFLGPPRKRLKQS [Y87C],with no effect

# Variants of: B1
# Conditions: with PIK3C2B
row,Variant,effect of a mutation on the interaction
1,MSRVPSPPPPAEMSSGPVAESWCYTQIKVVKFSYMWTINNFSFCREEMGEVIKSSTFSSGANDKLKWCLRVNPKGLDEESKDYLSLCLLLVSCPKSEVRAKFKFSILNAKGEETKAMESQRAYRFVQGKDWGFKKFIRRDFLLDEANGLLPDDKLTLFCEVSVVQDSVNISGQNTMNMVKVPECRLADELGGLWENSRFTDCCLCVAGQEFQAHKAILAARSPVFSAMFEHEMEESKKNRVEINDVEPEVFKEMMCFIYTGKAPNLDKMADDLLAAADKYALERLKVMCEDALCSNLSVENAAEILILADLHSADQLKTQAVDFINYHASDVLETSGWKSMVVSHPHLVAEAYRSLASAQCPFLGPPRKRLKQS [Y87C],with no effect

# Variants of: B1
# Conditions: with pk3cb_human PIK3CB
row,Variant,effect of a mutation on the interaction
1,MSRVPSPPPPAEMSSGPVAESWCYTQIKVVKFSYMWTINNFSFCREEMGEVIKSSTFSSGANDKLKWCLRVNPKGLDEESKDYLSLCLLLVSCPKSEVRAKFKFSILNAKGEETKAMESQRAYRFVQGKDWGFKKFIRRDFLLDEANGLLPDDKLTLFCEVSVVQDSVNISGQNTMNMVKVPECRLADELGGLWENSRFTDCCLCVAGQEFQAHKAILAARSPVFSAMFEHEMEESKKNRVEINDVEPEVFKEMMCFIYTGKAPNLDKMADDLLAAADKYALERLKVMCEDALCSNLSVENAAEILILADLHSADQLKTQAVDFINYHASDVLETSGWKSMVVSHPHLVAEAYRSLASAQCPFLGPPRKRLKQS [Y87C],with no effect

# Variants of: B1
# Conditions: with pk3cg_human PIK3CG
row,Variant,effect of a mutation on the interaction
1,MSRVPSPPPPAEMSSGPVAESWCYTQIKVVKFSYMWTINNFSFCREEMGEVIKSSTFSSGANDKLKWCLRVNPKGLDEESKDYLSLCLLLVSCPKSEVRAKFKFSILNAKGEETKAMESQRAYRFVQGKDWGFKKFIRRDFLLDEANGLLPDDKLTLFCEVSVVQDSVNISGQNTMNMVKVPECRLADELGGLWENSRFTDCCLCVAGQEFQAHKAILAARSPVFSAMFEHEMEESKKNRVEINDVEPEVFKEMMCFIYTGKAPNLDKMADDLLAAADKYALERLKVMCEDALCSNLSVENAAEILILADLHSADQLKTQAVDFINYHASDVLETSGWKSMVVSHPHLVAEAYRSLASAQCPFLGPPRKRLKQS [Y87C],with no effect

# Variants of: B1
# Conditions: with p85b_human PIK3R2, O00459
# p85b_human PIK3R2, O00459, sequence (O00459 whole entry): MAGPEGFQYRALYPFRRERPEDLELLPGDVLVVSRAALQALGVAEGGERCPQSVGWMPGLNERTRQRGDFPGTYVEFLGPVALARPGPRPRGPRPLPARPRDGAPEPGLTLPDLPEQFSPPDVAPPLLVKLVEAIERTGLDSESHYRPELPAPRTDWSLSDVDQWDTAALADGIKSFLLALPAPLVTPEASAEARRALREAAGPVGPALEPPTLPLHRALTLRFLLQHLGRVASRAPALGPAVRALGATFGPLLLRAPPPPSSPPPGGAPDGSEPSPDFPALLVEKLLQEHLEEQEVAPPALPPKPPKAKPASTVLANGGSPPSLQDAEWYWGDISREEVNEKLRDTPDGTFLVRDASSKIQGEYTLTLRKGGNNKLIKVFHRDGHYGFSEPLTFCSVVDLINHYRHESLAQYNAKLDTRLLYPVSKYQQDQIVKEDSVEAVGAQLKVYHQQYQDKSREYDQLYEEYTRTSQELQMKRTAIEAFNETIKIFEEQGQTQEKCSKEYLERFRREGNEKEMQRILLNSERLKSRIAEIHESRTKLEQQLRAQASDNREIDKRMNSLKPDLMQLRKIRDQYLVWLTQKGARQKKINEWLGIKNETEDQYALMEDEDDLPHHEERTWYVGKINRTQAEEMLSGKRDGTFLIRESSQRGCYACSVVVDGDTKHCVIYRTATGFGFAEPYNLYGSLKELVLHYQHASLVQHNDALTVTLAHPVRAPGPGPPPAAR
row,Variant,effect of a mutation on the interaction
1,MSRVPSPPPPAEMSSGPVAESWCYTQIKVVKFSYMWTINNFSFCREEMGEVIKSSTFSSGANDKLKWCLRVNPKGLDEESKDYLSLCLLLVSCPKSEVRAKFKFSILNAKGEETKAMESQRAYRFVQGKDWGFKKFIRRDFLLDEANGLLPDDKLTLFCEVSVVQDSVNISGQNTMNMVKVPECRLADELGGLWENSRFTDCCLCVAGQEFQAHKAILAARSPVFSAMFEHEMEESKKNRVEINDVEPEVFKEMMCFIYTGKAPNLDKMADDLLAAADKYALERLKVMCEDALCSNLSVENAAEILILADLHSADQLKTQAVDFINYHASDVLETSGWKSMVVSHPHLVAEAYRSLASAQCPFLGPPRKRLKQS [Y87C],with no effect

# Variants of: B1
# Conditions: with dpod1_human POLD1, P28340
row,Variant,effect of a mutation on the interaction
1,MSRVPSPPPPAEMSSGPVAESWCYTQIKVVKFSYMWTINNFSFCREEMGEVIKSSTFSSGANDKLKWCLRVNPKGLDEESKDYLSLCLLLVSCPKSEVRAKFKFSILNAKGEETKAMESQRAYRFVQGKDWGFKKFIRRDFLLDEANGLLPDDKLTLFCEVSVVQDSVNISGQNTMNMVKVPECRLADELGGLWENSRFTDCCLCVAGQEFQAHKAILAARSPVFSAMFEHEMEESKKNRVEINDVEPEVFKEMMCFIYTGKAPNLDKMADDLLAAADKYALERLKVMCEDALCSNLSVENAAEILILADLHSADQLKTQAVDFINYHASDVLETSGWKSMVVSHPHLVAEAYRSLASAQCPFLGPPRKRLKQS [Y87C],with no effect
